Molecular target: T1, His-tagged Hmmr (mouse, UniProt Q00547 1-794)
T1 construct: Hmmr, mouse; It is not restated for the bacterial construct; also called His-Hmmr; purified Hmmr; source: bacteria BL21 (DE3), purified (Ni-NTA)
T1 sequence (looked up): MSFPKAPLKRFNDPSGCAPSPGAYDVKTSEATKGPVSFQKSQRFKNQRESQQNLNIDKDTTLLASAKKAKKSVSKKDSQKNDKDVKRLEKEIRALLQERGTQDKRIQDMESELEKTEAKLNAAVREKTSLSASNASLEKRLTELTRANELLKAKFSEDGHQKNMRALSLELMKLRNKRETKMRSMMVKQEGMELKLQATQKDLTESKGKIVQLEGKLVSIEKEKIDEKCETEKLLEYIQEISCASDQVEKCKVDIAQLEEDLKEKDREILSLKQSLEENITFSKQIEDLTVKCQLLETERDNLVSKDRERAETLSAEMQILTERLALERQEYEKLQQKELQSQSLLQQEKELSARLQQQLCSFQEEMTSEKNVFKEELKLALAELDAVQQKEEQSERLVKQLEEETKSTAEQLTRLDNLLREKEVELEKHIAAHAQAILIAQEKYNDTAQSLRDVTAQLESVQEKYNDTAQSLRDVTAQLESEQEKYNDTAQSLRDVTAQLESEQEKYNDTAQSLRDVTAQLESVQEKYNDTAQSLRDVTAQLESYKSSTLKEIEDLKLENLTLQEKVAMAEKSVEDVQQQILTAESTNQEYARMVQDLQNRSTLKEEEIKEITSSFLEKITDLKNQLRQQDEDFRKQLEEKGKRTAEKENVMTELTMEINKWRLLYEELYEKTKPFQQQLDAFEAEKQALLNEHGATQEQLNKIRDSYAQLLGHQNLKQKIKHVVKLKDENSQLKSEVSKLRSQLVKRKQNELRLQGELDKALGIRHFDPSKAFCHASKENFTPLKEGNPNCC
Assay: co-IP; in vitro binding assay: purified His-tagged Hmmr and HA-tagged Trim25 mixed without RNA or with in vitro transcribed Terc-53, 5S rRNA, full-length Terc or Terc-53 mut; one sample with Terc-53 treated with RNase A; immunoprecipitated with His antibody, blot with HA antibody
Settings: both partners purified

B1: HA-tagged Trim25 (natural protein, mouse, UniProt Q61510 1-634, looked up)
chain: MAELNPLAEELSCSVCLELFKEPVTTPCGHNFCMSCLDETWVVQGPPYRCPQCRKVYQVRPQLQKNTVMCAVVEQFLQAEQARTPVDDWTPPARFSASSAATQVACDHCLTEIAVKTCLVCMASFCQEHLRPHFDSPAFQDHPLQSPIRDLLRRKCTQHNRLRELFCPEHGECICHICLVEHKTCSPTTLSQASADLEYKLRNKLTIMHSHINGATKALEDVRSKQQCVQDSMKRKMEQLRQEYMEMKAVIDAAETSSLRKLKEEEKRVYGKFDTIYQVLVKKKSEMQKLKAEVELIMDKGDEFEFLEKAAKLQGESTKPVYIPKIDLDHDLIMGIYQGAADLKSELKHSIKKLQKKSEEHNGSGNKGDQTQSTFKPVQPSKKTIQEKKTKKTPVAPGPPSHFSPNKLPTFGAPGQSLDSKATSPDAAPKASAAQPDSVGVKAKVLENFLTKSRTELLEYFVKVIFDYNTAHNKVSLSNKYTTASVSDGLQHYRSHPQRFTYCSQVLGLHCYKNGIHYWEVELQKNNFCGVGICYGSMERQGPESRLGRNPNSWCVEWFNNKISAWHNNVEKTLPSTKATRVGVLLNCDHGFVIFFAVTEKVHLMYKFKVDFTEALYPAFWVFSAGTTLSICSK
notes: Trim25, mouse; also called HA-Trim25; purified Trim25; source: purified
  binding result: binds

Reference: article PMC11700592, “Noncoding RNA Terc-53 and hyaluronan receptor Hmmr regulate aging in mice” (Protein & Cell, 2024)
